Tests used:
[1] = biological target: human TGFβ2 (transforming growth factor beta 2) (human) (UniProt P61812); experiment: cell-based or functional assay
[2] = biological target: human TGFβ1 (transforming growth factor beta 1) (human) (UniProt P01137); experiment: cell-based or functional assay
[3] = biological target: TGFβ3 (transforming growth factor beta 3) (UniProt P10600); experiment: cell-based or functional assay
[4] = biological target: TGFβ3 (transforming growth factor beta 3) (UniProt P10600); experiment: A549 cell radioreceptor assay, inhibition of 125I-TGFβ3 binding to receptors
[5] = biological target: human TGFβ2 (transforming growth factor beta 2) (human) (UniProt P61812); experiment: A549 cell radioreceptor assay, inhibition of 125I-TGFβ2 binding to receptors
[6] = biological target: human TGFβ1 (transforming growth factor beta 1) (human) (UniProt P01137); experiment: A549 cell radioreceptor assay, inhibition of 125I-TGFβ1 binding to receptors

human TGFβ2 (transforming growth factor beta 2) (human), sequence (P61812 303-414): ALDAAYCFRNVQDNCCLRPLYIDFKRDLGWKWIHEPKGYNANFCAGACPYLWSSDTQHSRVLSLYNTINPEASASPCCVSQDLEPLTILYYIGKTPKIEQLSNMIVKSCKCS
TGFβ3 (transforming growth factor beta 3), sequence (P10600 301-412 limits assumed): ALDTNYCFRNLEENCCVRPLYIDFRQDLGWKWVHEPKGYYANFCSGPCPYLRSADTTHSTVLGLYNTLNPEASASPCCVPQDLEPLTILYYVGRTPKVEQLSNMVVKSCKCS
human TGFβ1 (transforming growth factor beta 1) (human), sequence (P01137 279-390 limits assumed): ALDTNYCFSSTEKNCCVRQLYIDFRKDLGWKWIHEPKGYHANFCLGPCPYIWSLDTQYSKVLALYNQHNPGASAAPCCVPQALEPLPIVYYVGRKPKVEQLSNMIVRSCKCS

TF1 cell proliferation assay IC50 (nM IgG) [1]: 10 nM | TF1 cell proliferation assay IC50 (nM IgG) [2]: 1.5 nM | TF1 cell proliferation assay IC50 (nM IgG) [3]: 0.1 nM | IC50 [4]: 30 pM | IC50 [5]: 500 pM | IC50 [6]: 550 pM
Substance: mouse monoclonal antibody from Genzyme (Mouse anti-TGF β1,2,3; J.R. Dasch et al.)

Source: patent publication EP0853661B1
